Data as given in the supplement of paper PMC10065799, “High-throughput profiling of sequence recognition by tyrosine kinases and SH2 domains using bacterial peptide display” (eLife, 2023).
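Also: 11-residue human phosphosite peptides and single-mutation variants displayed on the E. coli surface, counted by deep sequencing, each peptide's frequency after selection divided by its frequency in the unselected input library; frequency after pTyr selection over input frequency; kinase dosed for 20-30% of maximal phosphorylation in three min.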

Each sequence was assayed against Hck (UniProt P08631) (assay: phosphorylation enrichment, bacterial display (enrichment ratio); higher = better substrate or ligand; peptides without Tyr show the background).
Hck, sequence (P08631 whole entry, looked up): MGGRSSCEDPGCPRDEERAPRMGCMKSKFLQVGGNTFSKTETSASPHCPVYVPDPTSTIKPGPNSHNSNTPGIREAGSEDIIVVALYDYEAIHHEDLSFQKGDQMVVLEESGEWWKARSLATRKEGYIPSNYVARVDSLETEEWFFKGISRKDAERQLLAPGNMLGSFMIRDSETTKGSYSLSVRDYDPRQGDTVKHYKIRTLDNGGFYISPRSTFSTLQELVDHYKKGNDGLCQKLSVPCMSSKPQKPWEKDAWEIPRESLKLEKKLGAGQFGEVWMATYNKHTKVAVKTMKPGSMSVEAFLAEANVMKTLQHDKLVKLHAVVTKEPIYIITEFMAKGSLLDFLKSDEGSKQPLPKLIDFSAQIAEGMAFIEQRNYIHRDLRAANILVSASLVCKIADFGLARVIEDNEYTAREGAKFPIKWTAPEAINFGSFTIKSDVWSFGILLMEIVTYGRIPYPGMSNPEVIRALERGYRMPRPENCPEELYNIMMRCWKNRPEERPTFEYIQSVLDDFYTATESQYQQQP
SHNKFYMLVAR [MFSD8_Y134_YF] gave a phosphorylation enrichment of 0.475. ADPQEYIPLPA [JAKtide_2014] gave a phosphorylation enrichment of 0.549. KDFTIYNPNLL [VANGL1_Y290] showed a phosphorylation enrichment of 1.58. For EYLHKYKGFKI [SYNE1_Y6953_Q6951H], the phosphorylation enrichment was 0.437. TFEFRYLEDQD [CNOT3_Y746_R750Q_YF] showed a phosphorylation enrichment of 0.622. DELDKYSEVLK [TPM1_Y60_A63V] showed a phosphorylation enrichment of 0.558. TQRPFYKGGGG [TYROBP_Y112_YF] was tested, and the phosphorylation enrichment was 0.42. TMETKYDNISR [SETDB2_Y477_V473M] gave a phosphorylation enrichment of 0.431. In the case of IAINKYEVSLI [MYO7A_Y2136_G2137E], the phosphorylation enrichment is reported as 0.493. Work on NGPDVYVLPLT [AATK_Y93] yielded a phosphorylation enrichment of 0.671. With PVQAAYQQVVA [HBB_Y131_K133Q] the phosphorylation enrichment was 0.659. For VIKDKYPKAHY [APTX_Y209_R213H], the phosphorylation enrichment was 0.273. For SVTCTYYPALN [TP53_Y126_S127Y], the phosphorylation enrichment was 0.592. With KKDGPYDVVVL [PARK7_Y67_E64D] the phosphorylation enrichment was 0.507. Work on AVLALYNSTRD [TGFB1_Y81] yielded a phosphorylation enrichment of 0.511. Work on NGTVSYAIVAG [CDH23_Y1672_T1671S] yielded a phosphorylation enrichment of 0.479. For FRKNIYNVKST [SYNE2_Y575_YF], the phosphorylation enrichment was 0.251. MAPQMYESHLP [NCAPD2_Y6_F8S] was tested, and the phosphorylation enrichment was 0.568. EFISECCGEII [EZH2_Y641_Y641C] gave a phosphorylation enrichment of 0.55. Sequence VMLENYSNLLS [ZFP69_Y109_V113L] has a phosphorylation enrichment of 0.422. VGEGPYLISDL [ABCC12_Y7] was tested, and the phosphorylation enrichment was 0.483. Sequence VFDHIYTTQSD [RET_Y928_L923V] has a phosphorylation enrichment of 1.14. Work on SGDITYGQFAQ [PLCG1_Y210] yielded a phosphorylation enrichment of 4.63. Work on KRAIGYYSATS [FAM120A_Y327] yielded a phosphorylation enrichment of 0.406. With ALVDTYCRHNF [HLA-DRB1_Y107_A103L_YF] the phosphorylation enrichment was 0.577. TLCLCYKETEE [ATP8B1_Y658_I661T] was tested, and the phosphorylation enrichment was 0.647. With SSNLFYRCLTA [CNGA3_Y169_W171C_YF] the phosphorylation enrichment was 0.429. Sequence CEHRGHLFLAI [TEK_Y897_Y897H_YF] has a phosphorylation enrichment of 0.547. In the case of TTICKYITPME [GUCY2C_Y839_S840I], the phosphorylation enrichment is reported as 0.469. Work on TAALWYIYSHT [ENG_Y612] yielded a phosphorylation enrichment of 1.3. FLAVGYHKPYI [IDS_Y225_H229Y] was tested, and the phosphorylation enrichment was 0.399. Sequence GQKTLYSFFSP [UNG_Y8] has a phosphorylation enrichment of 4.06. Sequence QDEHGYISRCF [HSPB1_Y133] has a phosphorylation enrichment of 0.838.

Each sequence was assayed against FGFR3 (UniProt P22607) in the same assay as above.
FGFR3, sequence (P22607 whole entry, looked up): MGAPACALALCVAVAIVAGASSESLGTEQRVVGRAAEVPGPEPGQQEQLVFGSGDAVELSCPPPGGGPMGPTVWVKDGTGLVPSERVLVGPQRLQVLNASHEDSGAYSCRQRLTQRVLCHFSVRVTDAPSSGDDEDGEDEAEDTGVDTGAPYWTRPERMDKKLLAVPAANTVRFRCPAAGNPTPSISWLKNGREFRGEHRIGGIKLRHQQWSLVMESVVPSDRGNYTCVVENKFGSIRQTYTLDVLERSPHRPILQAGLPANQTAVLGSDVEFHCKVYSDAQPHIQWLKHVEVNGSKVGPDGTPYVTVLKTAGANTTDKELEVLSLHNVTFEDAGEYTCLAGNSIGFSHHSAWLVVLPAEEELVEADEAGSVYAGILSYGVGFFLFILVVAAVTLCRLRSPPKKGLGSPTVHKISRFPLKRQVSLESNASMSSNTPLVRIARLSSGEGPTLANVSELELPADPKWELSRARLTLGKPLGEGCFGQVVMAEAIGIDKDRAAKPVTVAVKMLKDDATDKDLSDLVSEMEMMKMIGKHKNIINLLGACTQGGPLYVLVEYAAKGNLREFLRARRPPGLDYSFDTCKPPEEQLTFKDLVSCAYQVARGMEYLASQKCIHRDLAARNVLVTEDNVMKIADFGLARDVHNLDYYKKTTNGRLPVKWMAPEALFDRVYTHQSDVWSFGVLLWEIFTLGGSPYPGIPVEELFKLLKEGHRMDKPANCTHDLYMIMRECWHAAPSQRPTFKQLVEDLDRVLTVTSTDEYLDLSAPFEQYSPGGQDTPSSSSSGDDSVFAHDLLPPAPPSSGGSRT
For SHNKFYMLVAR [MFSD8_Y134_YF], the phosphorylation enrichment was 0.875. Sequence ADPQEYIPLPA [JAKtide_2014] has a phosphorylation enrichment of 0.693. In the case of KDFTIYNPNLL [VANGL1_Y290], the phosphorylation enrichment is reported as 0.518. Work on EYLHKYKGFKI [SYNE1_Y6953_Q6951H] yielded a phosphorylation enrichment of 0.57. For TFEFRYLEDQD [CNOT3_Y746_R750Q_YF], the phosphorylation enrichment was 0.903. With DELDKYSEVLK [TPM1_Y60_A63V] the phosphorylation enrichment was 0.923. TQRPFYKGGGG [TYROBP_Y112_YF] gave a phosphorylation enrichment of 0.438. TMETKYDNISR [SETDB2_Y477_V473M] showed a phosphorylation enrichment of 0.474. IAINKYEVSLI [MYO7A_Y2136_G2137E] was tested, and the phosphorylation enrichment was 0.635. For NGPDVYVLPLT [AATK_Y93], the phosphorylation enrichment was 0.613. PVQAAYQQVVA [HBB_Y131_K133Q] was tested, and the phosphorylation enrichment was 0.739. For VIKDKYPKAHY [APTX_Y209_R213H], the phosphorylation enrichment was 0.505. For SVTCTYYPALN [TP53_Y126_S127Y], the phosphorylation enrichment was 0.831. Work on KKDGPYDVVVL [PARK7_Y67_E64D] yielded a phosphorylation enrichment of 0.602. Sequence AVLALYNSTRD [TGFB1_Y81] has a phosphorylation enrichment of 0.547. NGTVSYAIVAG [CDH23_Y1672_T1671S] showed a phosphorylation enrichment of 0.593. In the case of FRKNIYNVKST [SYNE2_Y575_YF], the phosphorylation enrichment is reported as 0.355. MAPQMYESHLP [NCAPD2_Y6_F8S] showed a phosphorylation enrichment of 0.657. EFISECCGEII [EZH2_Y641_Y641C] gave a phosphorylation enrichment of 0.724. For VMLENYSNLLS [ZFP69_Y109_V113L], the phosphorylation enrichment was 0.586. VGEGPYLISDL [ABCC12_Y7] was tested, and the phosphorylation enrichment was 0.734. VFDHIYTTQSD [RET_Y928_L923V] was tested, and the phosphorylation enrichment was 0.682. Work on SGDITYGQFAQ [PLCG1_Y210] yielded a phosphorylation enrichment of 0.422. With KRAIGYYSATS [FAM120A_Y327] the phosphorylation enrichment was 0.389. Work on ALVDTYCRHNF [HLA-DRB1_Y107_A103L_YF] yielded a phosphorylation enrichment of 0.682. TLCLCYKETEE [ATP8B1_Y658_I661T] was tested, and the phosphorylation enrichment was 0.903. For SSNLFYRCLTA [CNGA3_Y169_W171C_YF], the phosphorylation enrichment was 0.742. With CEHRGHLFLAI [TEK_Y897_Y897H_YF] the phosphorylation enrichment was 0.908. Sequence TTICKYITPME [GUCY2C_Y839_S840I] has a phosphorylation enrichment of 0.56. With TAALWYIYSHT [ENG_Y612] the phosphorylation enrichment was 0.689. With FLAVGYHKPYI [IDS_Y225_H229Y] the phosphorylation enrichment was 0.512. For GQKTLYSFFSP [UNG_Y8], the phosphorylation enrichment was 1.42. QDEHGYISRCF [HSPB1_Y133] was tested, and the phosphorylation enrichment was 0.792.

What follows are sequences tested on c-Src in the same assay as above.
In the case of SHNKFYMLVAR [MFSD8_Y134_YF], the phosphorylation enrichment is reported as 0.36. Sequence ADPQEYIPLPA [JAKtide_2014] has a phosphorylation enrichment of 0.468. KDFTIYNPNLL [VANGL1_Y290] showed a phosphorylation enrichment of 1.2. Work on EYLHKYKGFKI [SYNE1_Y6953_Q6951H] yielded a phosphorylation enrichment of 0.501. TFEFRYLEDQD [CNOT3_Y746_R750Q_YF] gave a phosphorylation enrichment of 0.597. Sequence DELDKYSEVLK [TPM1_Y60_A63V] has a phosphorylation enrichment of 0.62. TQRPFYKGGGG [TYROBP_Y112_YF] showed a phosphorylation enrichment of 0.403. TMETKYDNISR [SETDB2_Y477_V473M] was tested, and the phosphorylation enrichment was 0.429. For IAINKYEVSLI [MYO7A_Y2136_G2137E], the phosphorylation enrichment was 0.451. With NGPDVYVLPLT [AATK_Y93] the phosphorylation enrichment was 1.04. With PVQAAYQQVVA [HBB_Y131_K133Q] the phosphorylation enrichment was 0.576. Work on VIKDKYPKAHY [APTX_Y209_R213H] yielded a phosphorylation enrichment of 0.377. Work on SVTCTYYPALN [TP53_Y126_S127Y] yielded a phosphorylation enrichment of 0.575. KKDGPYDVVVL [PARK7_Y67_E64D] was tested, and the phosphorylation enrichment was 0.569. AVLALYNSTRD [TGFB1_Y81] showed a phosphorylation enrichment of 0.489. Sequence NGTVSYAIVAG [CDH23_Y1672_T1671S] has a phosphorylation enrichment of 0.456. FRKNIYNVKST [SYNE2_Y575_YF] gave a phosphorylation enrichment of 0.355. With MAPQMYESHLP [NCAPD2_Y6_F8S] the phosphorylation enrichment was 0.378. Work on EFISECCGEII [EZH2_Y641_Y641C] yielded a phosphorylation enrichment of 0.472. VMLENYSNLLS [ZFP69_Y109_V113L] gave a phosphorylation enrichment of 0.428. In the case of VGEGPYLISDL [ABCC12_Y7], the phosphorylation enrichment is reported as 0.752. Sequence VFDHIYTTQSD [RET_Y928_L923V] has a phosphorylation enrichment of 2.41. Sequence SGDITYGQFAQ [PLCG1_Y210] has a phosphorylation enrichment of 5.78. KRAIGYYSATS [FAM120A_Y327] was tested, and the phosphorylation enrichment was 0.359. ALVDTYCRHNF [HLA-DRB1_Y107_A103L_YF] was tested, and the phosphorylation enrichment was 0.538. In the case of TLCLCYKETEE [ATP8B1_Y658_I661T], the phosphorylation enrichment is reported as 0.617. SSNLFYRCLTA [CNGA3_Y169_W171C_YF] showed a phosphorylation enrichment of 0.454. With CEHRGHLFLAI [TEK_Y897_Y897H_YF] the phosphorylation enrichment was 0.453. Sequence TTICKYITPME [GUCY2C_Y839_S840I] has a phosphorylation enrichment of 0.458. With TAALWYIYSHT [ENG_Y612] the phosphorylation enrichment was 1.82. FLAVGYHKPYI [IDS_Y225_H229Y] was tested, and the phosphorylation enrichment was 0.348. With GQKTLYSFFSP [UNG_Y8] the phosphorylation enrichment was 4.32. With QDEHGYISRCF [HSPB1_Y133] the phosphorylation enrichment was 0.418.

The sequences below were run on Fer (mouse) in the same assay as above.
In the case of SHNKFYMLVAR [MFSD8_Y134_YF], the phosphorylation enrichment is reported as 0.607. In the case of ADPQEYIPLPA [JAKtide_2014], the phosphorylation enrichment is reported as 0.457. KDFTIYNPNLL [VANGL1_Y290] gave a phosphorylation enrichment of 0.599. With EYLHKYKGFKI [SYNE1_Y6953_Q6951H] the phosphorylation enrichment was 0.405. With TFEFRYLEDQD [CNOT3_Y746_R750Q_YF] the phosphorylation enrichment was 0.438. DELDKYSEVLK [TPM1_Y60_A63V] showed a phosphorylation enrichment of 0.624. In the case of TQRPFYKGGGG [TYROBP_Y112_YF], the phosphorylation enrichment is reported as 0.331. TMETKYDNISR [SETDB2_Y477_V473M] showed a phosphorylation enrichment of 0.403. IAINKYEVSLI [MYO7A_Y2136_G2137E] was tested, and the phosphorylation enrichment was 0.486. Sequence NGPDVYVLPLT [AATK_Y93] has a phosphorylation enrichment of 0.414. Work on PVQAAYQQVVA [HBB_Y131_K133Q] yielded a phosphorylation enrichment of 0.484. VIKDKYPKAHY [APTX_Y209_R213H] gave a phosphorylation enrichment of 0.358. SVTCTYYPALN [TP53_Y126_S127Y] showed a phosphorylation enrichment of 0.556. KKDGPYDVVVL [PARK7_Y67_E64D] showed a phosphorylation enrichment of 3.37. In the case of AVLALYNSTRD [TGFB1_Y81], the phosphorylation enrichment is reported as 0.531. NGTVSYAIVAG [CDH23_Y1672_T1671S] was tested, and the phosphorylation enrichment was 0.448. With FRKNIYNVKST [SYNE2_Y575_YF] the phosphorylation enrichment was 0.348. MAPQMYESHLP [NCAPD2_Y6_F8S] was tested, and the phosphorylation enrichment was 9.41. For EFISECCGEII [EZH2_Y641_Y641C], the phosphorylation enrichment was 0.508. For VMLENYSNLLS [ZFP69_Y109_V113L], the phosphorylation enrichment was 0.372. Sequence VGEGPYLISDL [ABCC12_Y7] has a phosphorylation enrichment of 0.578. VFDHIYTTQSD [RET_Y928_L923V] showed a phosphorylation enrichment of 0.443. For SGDITYGQFAQ [PLCG1_Y210], the phosphorylation enrichment was 0.387. KRAIGYYSATS [FAM120A_Y327] showed a phosphorylation enrichment of 0.383. ALVDTYCRHNF [HLA-DRB1_Y107_A103L_YF] gave a phosphorylation enrichment of 0.588. With TLCLCYKETEE [ATP8B1_Y658_I661T] the phosphorylation enrichment was 0.737. With SSNLFYRCLTA [CNGA3_Y169_W171C_YF] the phosphorylation enrichment was 0.497. With CEHRGHLFLAI [TEK_Y897_Y897H_YF] the phosphorylation enrichment was 0.463. With TTICKYITPME [GUCY2C_Y839_S840I] the phosphorylation enrichment was 0.417. Sequence TAALWYIYSHT [ENG_Y612] has a phosphorylation enrichment of 0.586. Sequence FLAVGYHKPYI [IDS_Y225_H229Y] has a phosphorylation enrichment of 0.554. Sequence GQKTLYSFFSP [UNG_Y8] has a phosphorylation enrichment of 8.62. Work on QDEHGYISRCF [HSPB1_Y133] yielded a phosphorylation enrichment of 0.601.
